How the values were obtained:
[1] = system: CBC–NELF–E complex immobilised on m^7GTP-sepharose; assay: Displacement pull down on m^7GTP-sepharose, CBC–NELF–E; assay type: binding, human; details: increasing amounts added, 1 h at 4 °C, flow through and elution by SDS-PAGE
Method: (§1) Fig. 4 Incompatibility of ARS2-PHAX and NELF-E binding to CBC. a, b Competition on m^7GTP-sepharose. a In separate experiments, different amounts of ARS2^147–871 were added to preformed CBC–NELF–E complex immobilised on m^7GTP-sepharose. […] The fluorophore FAM is represented with a star. Note that different constructs of NELF-E and ARS2 were used in c, d, and e compared to f, g, and h and are therefore represented by slightly different shapes. Error bars show the SD of three experiments
CBC-NELF-E^1–380 or CBC-PHAX^1–394 were immobilised on m^7GTP-sepharose and incubated for 1 h at 4 °C with different amounts of ARS2^147–871 or NELF-E^1–380 in 20 mM HEPES, pH 7.8, 120 mM NaCl, 2 mM tris(2-carboxyethyl)phosphine, respectively. The flow through, as well as the elution from the beads after extensive washing, was analysed by SDS-PAGE followed by Coomassie staining.

CBC [2] = molecular target: T1, CBC (Homo sapiens, UniProt P52298); assay: Size exclusion chromatography (gel filtration) co-elution with CBC, with m^7GTP; assay type: binding; details: gel filtration with 500 µM m^7GTP, fractions analysed by SDS-PAGE
T1 sequence (P52298 1-156): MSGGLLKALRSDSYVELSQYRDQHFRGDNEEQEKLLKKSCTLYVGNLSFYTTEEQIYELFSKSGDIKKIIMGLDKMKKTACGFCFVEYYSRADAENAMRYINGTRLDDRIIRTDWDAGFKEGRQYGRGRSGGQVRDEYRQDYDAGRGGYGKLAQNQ
T1 sequence (Q09161 20-790 partner): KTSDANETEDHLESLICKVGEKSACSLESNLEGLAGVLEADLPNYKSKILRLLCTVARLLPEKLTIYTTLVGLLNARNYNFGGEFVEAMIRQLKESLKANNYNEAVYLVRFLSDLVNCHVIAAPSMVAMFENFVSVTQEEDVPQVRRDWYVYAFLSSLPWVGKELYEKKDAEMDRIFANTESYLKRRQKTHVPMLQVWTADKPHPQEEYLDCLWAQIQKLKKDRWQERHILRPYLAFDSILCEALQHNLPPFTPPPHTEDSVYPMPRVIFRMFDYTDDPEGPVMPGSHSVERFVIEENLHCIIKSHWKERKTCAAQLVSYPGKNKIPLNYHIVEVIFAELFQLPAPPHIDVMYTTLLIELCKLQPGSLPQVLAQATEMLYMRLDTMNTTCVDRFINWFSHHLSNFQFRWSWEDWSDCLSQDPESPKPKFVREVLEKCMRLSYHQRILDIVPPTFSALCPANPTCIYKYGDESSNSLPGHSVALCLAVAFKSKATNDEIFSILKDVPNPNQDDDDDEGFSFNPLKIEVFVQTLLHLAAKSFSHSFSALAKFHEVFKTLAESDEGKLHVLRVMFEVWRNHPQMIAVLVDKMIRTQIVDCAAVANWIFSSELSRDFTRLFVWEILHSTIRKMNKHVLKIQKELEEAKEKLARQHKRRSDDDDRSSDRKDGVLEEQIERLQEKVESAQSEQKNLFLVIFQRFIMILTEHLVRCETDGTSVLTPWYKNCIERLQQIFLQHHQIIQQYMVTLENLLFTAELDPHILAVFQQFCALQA
Method: (§2) Fig. 1 The interaction of CBC with ARS2 is enhanced in the presence of m^7GTP. a Schematic diagram of the domain structure of ARS2 based on ref. [26]. b Gel filtration chromatogram and Coomassie-stained SDS-PAGE of CBC-ARS2 in the presence and absence of m^7GTP. Purified recombinant CBC and ARS2^147–871 were mixed with (orange) or without (blue) 500 µM m^7GTP and subjected to gel filtration. Their elution profiles were overlaid (left) and single fractions analysed by SDS-PAGE (middle and right). Purified recombinant CBC and C-terminally truncated ARS2^147–845 were mixed with 500 µM m^7GTP and analysed in a similar way (bottom left). c ITC data and curve fit to derive the affinity of different ARS2 constructs for CBC. CBC or m^7GTP-CBC in the sample cell was titrated by ARS2. […] K D values and standard deviation represent the average from at least two independent experiments. d Sequence alignment of the C-terminus of ARS2. Conserved residues are highlighted in red. Figure made with ESPript[54]
Fig. 2 The interaction of CBC with NELF-E is enhanced in the presence of m^7GTP. a Schematic diagram of the domain structure of NELF-E. b Gel filtration chromatogram and Coomassie-stained SDS-PAGE of CBC-NELF-E in the presence and absence of m^7GTP. Purified recombinant CBC and NELF-E were mixed with (orange) or without (green) 500 µM m^7GTP and subjected to gel filtration. Their elution profiles were overlaid (left) and single fractions analysed by SDS-PAGE (middle and right). Purified recombinant CBC and NELF-E^244–360 were mixed together with 500 µM m^7GTP and similarly analysed (bottom left). c ITC data and curve fit to derive the affinity of different NELF-E constructs for CBC. CBC or m^7GTP-CBC in the sample cell was titrated by NELF-E^244–380 or NELF-E^360–380. The data were presented as described in the caption to Fig. 1c. d Sequence alignment of the C-terminus of NELF-E. Conserved residues are highlighted in red. Figure made with ESPript[54]

CBC [3] = molecular target: T1, CBC; assay: ITC, binding to CBC without cap analogue; details: ITC (MicroCal ITC200), 25 °C, 20 mM HEPES, 120 mM NaCl, 2 mM TCEP, pH 7.8, single-site fit; no cap analogue pre-bound; mean ± SD of at least two independent experiments; SD
Excerpt: hARS2 isoform-4 (871 residues, UniProt:Q9BXP5-4, also known as isoform-e, NP_001122326) constructs (residues 147–871, 147–845, 763–871, 763–845, 827–871) hNELF-E (NM_002904.5) (244–380, 244–360) and hPHAX (NM_032177.3) (1–394, 103–294, 103–308, 103–327) were cloned into pETM11 (EMBL). Full-length hNELF-E (1–380) was cloned into pFASTBac and CBP20 into pETM30. Primers used are given in Supplementary Table 2. All constructs were expressed in E. coli Rosetta 2 (Novagen), except full-length NELF-E and CBP80ΔNLS (CBP80 with residues 1–19 deleted[2]), which were expressed in High Five insect cells (Life Technology). Cells were harvested and lysed by sonication in lysis buffer containing 50 mM HEPES, pH 7.8, 300 mM NaCl, 10% (v/v) glycerol, 5 mM β-mercaptoethanol. Lysates were clarified by centrifugation and applied on an equilibrated Ni-sepharose column (GE Healthcare), washed with 20 mM imidazole in lysis buffer, and eluted with 300 mM imidazole in lysis buffer. While dialysing into 20 mM HEPES, pH 7.8, 120 mM NaCl, 10% (v/v) glycerol, 5 mM β-mercaptoethanol, the N-terminal 6-histidine-tag was cleaved with His-tagged Tobacco Etch Virus (TEV) protease overnight in a ratio 1:100 mg TEV per mg protein. The cleaved protein was further purified first on Ni-sepharose to remove TEV and then using an anion exchange column (HiTrap Q, GE Healthcare) followed if necessary by a Heparin column (GE Healthcare). In both cases a NaCl gradient from 50 to 800 mM in 20 mM HEPES 7.8, 0.5 mM tris(2-carboxyethyl)phosphine was used. To reconstitute the CBC heterodimer, cleared His-tagged CBP20 lysate was first immobilised on a Ni-sepharose column. After washing the column with lysis buffer, the cleared CBP80 lysate was applied to the column and further purification steps performed as described above. To remove the access of CBP20 the flow through of the Ni-column after TEV cleavage was loaded on an anion exchange column (HiTrap Q, GE Healthcare) and CBC eluted by a NaCl gradient as described above. In the text we refer to CBP80ΔNLS and CBP80ΔNLS-CBP20 as CBP80 and CBC, respectively. ARS2^845–871, NELF-E^354–380, and NELF-E^360–380 peptides, with or without FAM label at the N-terminus, were purchased from GenScript.

m^7GTP-CBC = molecular target: T2, m^7GTP-CBC (Homo sapiens, UniProt P52298+Q09161); assay: Fluorescence polarisation with FAM-labelled C-terminal peptides; assay type: binding; details: competition, 40 nM FAM peptide, 25 µM m^7GTP, 25 °C, n = 3
T2 construct: 6-histidine tag (pETM30 vector) (N, cleaved yes); made in house; host or cells: CBP20 in E. coli Rosetta 2; CBP80ΔNLS in High Five insect cells; heterodimer reconstituted on Ni-sepharose
T2 sequence (Q09161 20-790): T1 sequence (Q09161 20-790 partner)
T2 sequence (P52298 1-156): T1 sequence (P52298 1-156)
Method: as §1
Fluorescence anisotropy binding assays were performed with N-terminal FAM-labelled ARS2^845–871 and […] peptides. 40 nM peptides were titrated with increasing concentrations of proteins in 20 mM HEPES, pH 7.8, 120 mM NaCl, 2 mM tris(2-carboxyethyl)phosphine. For the competition assay CBC–ARS2 and CBC–NELF–E complexes were preformed in the presence of 25 µM m^7GTP using 40 nM ARS2^827–871(FAM) peptide together with 60 nM CBC and 40 nM NELF-E^354–380(FAM) peptide with 1 µM CBC. […] To observe a change in polarisation at reasonable protein concentrations, CBC and NELF-E^244–380 concentrations that saturate half of the FAM-labelled peptides were used to preform the individual complexes. Fluorescence polarisation was measured at 25 °C with a microplate reader (CLARIOstar BMG LABTECH) using an excitation wavelength of 495 nm and emission wavelength of 515 nm. For analysis the polarisation value for the peptide alone was subtracted from the measurements.

CBC [4] = molecular target: T1, CBC; assay: Size exclusion chromatography (gel filtration) co-elution with CBC, without m^7GTP; assay type: binding; details: fractions analysed by SDS-PAGE, absence of m^7GTP
Method: as §2
Fig. 2 The interaction of CBC with NELF-E is enhanced in the presence of m^7GTP. a Schematic diagram of the domain structure of NELF-E. b Gel filtration chromatogram and Coomassie-stained SDS-PAGE of CBC-NELF-E in the presence and absence of m^7GTP. […] Their elution profiles were overlaid (left) and single fractions analysed by SDS-PAGE (middle and right). […]

B1: ARS2^147–871: human ARS2 lacking the putatively unstructured N-terminal region (protein, UniProt Q9BXP5 147-871, looked up, fragment)
chain: PVMKTFKEFLLSLDDSVDETEAVKRYNDYKLDFRRQQMQDFFLAHKDEEWFRSKYHPDEVGKRRQEARGALQNRLRVFLSLMETGWFDNLLLDIDKADAIVKMLDAAVIKMEGGTENDLRILEQEEEEEQAGKPGEPSKKEEGRAGAGLGDGERKTNDKDEKKEDGKQAENDSSNDDKTKKSEGDGDKEEKKEDSEKEAKKSSKKRNRKHSGDDSFDEGSVSESESESESGQAEEEKEEAEEALKEKEKPKEEEWEKPKDAAGLECKPRPLHKTCSLFMRNIAPNISRAEIISLCKRYPGFMRVALSEPQPERRFFRRGWVTFDRSVNIKEICWNLQNIRLRECELSPGVNRDLTRRVRNINGITQHKQIVRNDIKLAAKLIHTLDDRTQLWASEPGTPPLPTSLPSQNPILKNITDYLIEEVSAEEEELLGSSGGAPPEEPPKEGNPAEINVERDEKLIKVLDKLLLYLRIVHSLDYYNTCEYPNEDEMPNRCGIIHVRGPMPPNRISHGEVLEWQKTFEEKLTPLLSVRESLSEEEAQKMGRKDPEQEVEKFVTSNTQELGKDKWLCPLSGKKFKGPEFVRKHIFNKHAEKIEEVKKEVAFFNNFLTDAKRPALPEIKPAQPPGPAQILPPGLTPGLPYPHQTPQGLMPYGQPRPPILGYGAGAVRPAVPTGGPPYPHAPYGAGRGNYDAFRGQGGYPGKPRNRMVRGDPRAIVEYRDLDAPD
Displacement of NELF-E from immobilised m^7GTP–CBC–NELF–E complex [1]: could displace NELF-E
Interaction with CBC by SEC in the presence of m^7GTP (CBC [2]): only co-eluted in the presence of the cap analogue m^7GTP

B2: PHAX 103–327: human PHAX residues 103–327, includes the full PHAX RBD (protein, UniProt Q9H814 103-327, looked up, fragment)
chain: SQKPPVAGGKKINNIWGAVLQEQNQDAVATELGILGMEGTIDRSRQSETYNYLLAKKLRKESQEHTKDLDKELDEYMHGGKKMGSKEEENGQGHLKRKRPVKDRLGNRPEMNYKGRYEITAEDSQEKVADEISFRLQEPKKDLIARVVRIIGNKKAIELLMETAEVEQNGGLFIMNGSRRRTPGGVFLNLLKNTPSISEEQIKDIFYIENQKEYENKKAARKRRT
Kd (CBC [3]): 350 ± 71 nM
Change of polarisation on titration to m^7GTP-CBC-ARS2^845–871(FAM) (m^7GTP-CBC; 60 nM CBC): did not affect the polarisation
Change of polarisation on titration to m^7GTP-CBC-NELF-E^354–380(FAM) (m^7GTP-CBC; 1 µM CBC): did not change the polarisation

B3: PHAX 120–308: human PHAX residues 120–308 (protein, UniProt Q9H814 120-308, looked up, fragment)
chain: AVLQEQNQDAVATELGILGMEGTIDRSRQSETYNYLLAKKLRKESQEHTKDLDKELDEYMHGGKKMGSKEEENGQGHLKRKRPVKDRLGNRPEMNYKGRYEITAEDSQEKVADEISFRLQEPKKDLIARVVRIIGNKKAIELLMETAEVEQNGGLFIMNGSRRRTPGGVFLNLLKNTPSISEEQIKDIF
Interaction with CBC by SEC (CBC [4]): No interaction via SEC

B4: PHAX 103–264: human PHAX residues 103–264 (protein, UniProt Q9H814 103-264, looked up, fragment)
chain: SQKPPVAGGKKINNIWGAVLQEQNQDAVATELGILGMEGTIDRSRQSETYNYLLAKKLRKESQEHTKDLDKELDEYMHGGKKMGSKEEENGQGHLKRKRPVKDRLGNRPEMNYKGRYEITAEDSQEKVADEISFRLQEPKKDLIARVVRIIGNKKAIELLME
Interaction with CBC by SEC (CBC [4]): No interaction via SEC

Source: paper PMC5670239, “Structural basis for mutually exclusive co-transcriptional nuclear cap-binding complexes with either NELF-E or ARS2” (Nature Communications, 2017)
